The values that follow come from patent US20210363269A1 (ALX ONCOLOGY, published 2021).

The target in assay [1] is T1, BALB/c mouse SIRP-α D1 domain (mouse (BALB/c strain)).
T1 chain: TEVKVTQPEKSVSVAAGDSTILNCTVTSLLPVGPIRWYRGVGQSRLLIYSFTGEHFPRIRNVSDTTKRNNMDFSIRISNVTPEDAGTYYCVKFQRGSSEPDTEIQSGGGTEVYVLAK
The experiment in a line: SPR, antibody immobilised on GLC chip. As to the method:
(§1) All experiments were performed at 25° C. using a SPR-based ProteOn XPR36 biosensor (BioRad, Inc, Hercules, Calif.) equipped with GLC or NLC sensor chips. […] Purification was carried out by standard Protein A affinity column chromatography and eluted antibodies were stored in PBS buffer.
(§2) For the method using GLC chip, the analytes were injected and flowed over anti-SIRPα antibodies immobilized (˜1000 RUs) on GLC chips using Proteon™ Amine Coupling Kit. For the immobilization step, GLC chip was activated with EDAC/Sulpho-NHS 1:1 (Biorad) diluted 1/100 for 300 s at 25 μL/min. Anti-SIRPα antibodies were diluted to 80 nM concentration in 10 mM sodium acetate buffer pH 4.5 and immobilized to the chip at 30 μL/min for 50 s. Chip was inactivated with ethanolamine for 300 s at 25 μL/min. The analytes (e.g., SIRP-α from different species, SIRP-β, SIRP-γ) were injected in a “one-shot” kinetic mode at nominal concentrations of 100, 33, 11, 3.7, 1.2 and 0 nM. Association times were monitored for 90 s at 100 μL/min, and dissociation times were monitored for 1200 s. The surfaces were regenerated with a 2:1 v/v blend of Pierce IgG elution buffer/4M NaCl. […]
A general note: SPR reads the build-up and loss of mass on a sensor chip optically.

Assay [2] has as its target T2, C57BL/6 mouse SIRP-α D1 domain (mouse (C57BL/6 strain), UniProt P97797 32-148).
T2 sequence: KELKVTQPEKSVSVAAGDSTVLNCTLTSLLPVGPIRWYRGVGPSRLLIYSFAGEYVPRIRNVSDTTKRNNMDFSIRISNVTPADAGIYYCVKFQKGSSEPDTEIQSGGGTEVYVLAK
Kind of assay: SPR, antibody immobilised on GLC chip. As to the method:
as §1, §2

Assay [3] concerns the target T3, human SIRPγ isoform 1 (human, UniProt Q9P1W8 29-147).
T3 construct: also called sirpg; sirp-g
The experiment in a line: SPR, antibody immobilised on GLC chip. As to the method:
as §1, §2
T3 sequence (Q9P1W8 29-147 limits assumed): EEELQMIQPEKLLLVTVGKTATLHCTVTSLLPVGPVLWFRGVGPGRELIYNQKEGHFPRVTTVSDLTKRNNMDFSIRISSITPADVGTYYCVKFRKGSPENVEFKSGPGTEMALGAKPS

Assay [4] has as its target T4, human SIRP-α v2 D1 domain (human).
T4 construct: also called human v2; human α v2
Kind of assay: SPR, antibody immobilised on GLC chip. As to the method: as §1, §2

The target of assay [5] is T5, NOD mouse SIRP-α D1 domain (mouse (NOD strain)).
T5 chain: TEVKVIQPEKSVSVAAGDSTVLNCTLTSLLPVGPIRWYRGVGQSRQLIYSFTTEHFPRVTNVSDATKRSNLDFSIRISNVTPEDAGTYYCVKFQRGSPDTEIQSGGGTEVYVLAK
The experiment in a line: SPR, antibody immobilised on GLC chip. As to the method:
as §1, §2

For assay [6], the target named is T6, human SIRP-α v1 D1 domain (human, UniProt P78324 31-149).
T6 construct: also called human v1; human α v1
T6 sequence (P78324 31-149 limits assumed): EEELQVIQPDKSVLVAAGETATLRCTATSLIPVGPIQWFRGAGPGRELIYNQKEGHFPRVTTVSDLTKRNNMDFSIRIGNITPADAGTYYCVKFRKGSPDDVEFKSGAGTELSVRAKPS
The experiment in a line: SPR, antibody immobilised on GLC chip. As to the method: as §1, §2

Assay [7] addresses T7, human SIRP-α v1 (human, UniProt P78324 31-149).
T7 construct: also called Human v1; Human V1
The experiment in a line: SPR, antibody on GLC chip. A digest of the protocol: (§3)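 On a ProteOn XPR36 biosensor, Protein A-purified antibodies were amine-coupled to a GLC chip at about ~1000 RU after dilution to 80 nM in 10 mM sodium acetate pH 4.5. SIRP analytes at 100, 33, 11, 3.7, 1.2 and 0 nM were then injected one-shot in PBS pH 7.4 containing 0.01% Tween-20 at 25° C, with 90 s of association at 100 μL/min and 1200 s of dissociation. The dissociation constant (KD) was calculated as kd/ka from a global Langmuir fit of double-referenced data.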

Assay [8] addresses T8, BL6 mouse SIRP-α (mouse (C57BL/6 strain), UniProt P97797 32-148).
T8 construct: also called C57BL/6
T8 sequence: T2 sequence
Kind of assay: SPR, antibody on GLC chip. A digest of the protocol: as §3

For assay [9], the target named is T9, BALBc mouse SIRP-α (mouse (BALB/c strain)).
T9 chain: T1 chain
The experiment in a line: SPR, antibody on GLC chip. A digest of the protocol:
as §3

For a further assay, the target named is T10, human SIRPβ isoform 1 (human, UniProt O00241 30-148).
T10 construct: also called Beta; Human SIRPb
T10 sequence (O00241 30-148 limits assumed): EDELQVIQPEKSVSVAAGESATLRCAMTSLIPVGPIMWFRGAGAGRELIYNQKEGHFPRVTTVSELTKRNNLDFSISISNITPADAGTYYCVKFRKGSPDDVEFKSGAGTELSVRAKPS
Kind of assay: SPR, antibody on GLC chip. The method, boiled down:
as §3

In another assay the target is T11, human SIRP-α v2 (human).
T11 construct: also called Human v2; Human V2
T11 sequence (chain, as listed by the source limits assumed): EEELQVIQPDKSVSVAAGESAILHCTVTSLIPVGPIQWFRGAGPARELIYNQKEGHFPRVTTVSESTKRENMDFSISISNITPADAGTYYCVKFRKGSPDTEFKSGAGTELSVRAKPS
The experiment in a line: SPR, antibody on GLC chip. A digest of the protocol:
as §3

In the next assay the target is T12, cynomolgus SIRP-α (cynomolgus monkey, UniProt Q5TFQ8 30-148 (human entry), limits assumed).
T12 construct: also called cyno1
T12 chain: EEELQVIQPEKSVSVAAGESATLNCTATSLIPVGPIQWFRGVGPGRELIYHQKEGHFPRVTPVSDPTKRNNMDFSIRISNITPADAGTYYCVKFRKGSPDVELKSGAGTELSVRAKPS
Kind of assay: SPR, antibody on GLC chip. A digest of the protocol: as §3

Assay [10] addresses T13, human SIRPγ isoform 1 (human, UniProt Q9P1W8 29-147).
T13 construct: also called Gamma; Human SIRPg
The experiment in a line: SPR, antibody on GLC chip. The method, boiled down:
as §3
T13 sequence (Q9P1W8 29-147 limits assumed): as the sequence (Q9P1W8 29-147 limits assumed) above

The target of assay [11] is T14, NOD mouse SIRP-α (mouse (NOD strain)).
T14 chain: T5 chain
Kind of assay: SPR, antibody on GLC chip. The method, boiled down: as §3

Assay [12] deals with T7, human SIRP-α v1. The experiment in a line: SPR. A digest of the protocol: (§4)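 Apparent association and dissociation rate constants, and KD as kd/ka, were obtained by global fitting of double-referenced data to a simple Langmuir model. Measurements used a ProteOn XPR36 biosensor at 25° C in PBS pH 7.4 with 0.01% Tween-20, with SIRP analytes injected in one-shot kinetic mode at nominal concentrations from A280 absorbance. The purified antibodies were either amine-coupled to a GLC chip or held on an NLC chip by biotinylated Protein A.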

Assay [13] deals with T9, BALBc mouse SIRP-α. The experiment in a line: SPR. The method, boiled down:
as §4

Assay [14] addresses T14, NOD mouse SIRP-α. The experiment in a line: SPR. A digest of the protocol:
as §4

In assay [15] the target is T8, BL6 mouse SIRP-α. Kind of assay: SPR. A digest of the protocol:
as §4

Changes are numbered by the printed parent chain. Numbers in names are those of the source.

T4 sequence (chain, as listed by the source limits assumed): as the sequence (chain, as listed by the source limits assumed) above
T7 sequence (P78324 31-149 limits assumed): as the sequence (P78324 31-149 limits assumed) above

B1: antibody 136 variant Mut/mut (antibody, human IgG1, V domains shown)
VH: EVQLVESGGGVVQPGRSLRLSCAASGFTFSSYDVNWVRQAPGKGLEWVSLISGSGEIIYYADSVKGRFTISRDNSKNTLYLQMNSLRAEDTAVYYCAKENNRYRFFDDWGQGTLVTVSS
VL: EIVLTQSPGTLSLSPGERATLSCRASQSVYTYLAWYQQKPGQAPRLLIYGASSRATGIPDRFSGSGSGTEFTLTISSLQSEDFAVYYCQQYYDRPPLTFGGGTKVEIK
notes: Human IgG1 with L234A/L235A/G237A/N297A; Labels are light chain/heavy chain
The Kd is the equilibrium constant for the complex coming apart. A high value points to a looser complex. As for B1, the equilibrium dissociation constant (Kd) amounted to 2.67 nM in [1]; 21.6 nM in assay [2]; 28.8 nM with human SIRPγ isoform 1 [3]; 12.7 nM in [4]; 5.42 nM in [5]; 7.32 nM in assay [6].

B2: antibody 136 variant, light chain Mut_I2T / heavy chain Mut_V34M (antibody, V domains shown)
VH: B1 VH with V34M
VL: B1 VL with I2T
B2: the Kd is 0.551 nM in the assay with human SIRP-α v1 [7]; 13.8 nM with BL6 mouse SIRP-α [8]; 0.361 nM in the assay with BALBc mouse SIRP-α [9]; 2.22 nM in the assay with human SIRPβ isoform 1; 1.74 nM in the assay with human SIRP-α v2; 2.11 nM with cynomolgus SIRP-α. The figures for the dissociation constant (Kd) with human SIRPγ isoform 1 [10] and in the assay with NOD mouse SIRP-α [11] were 33.5 nM and 0.596 nM, respectively.

B3: antibody 136 variant MutRv_I2T/mut (antibody, human IgG1, V domains shown)
VH: B1 VH
VL: B1 VL with I2T
notes: as for B1
As for B3, the Kd in assay [1] was 0.422 nM; in assay [2], 15.3 nM; with human SIRPγ isoform 1 [3], 40 nM; in assay [4], 1.86 nM; in assay [5], 0.68 nM; in [6] it was 0.717 nM.

B4: antibody 136 variant MutRv_S12T/mut (antibody, human IgG1, V domains shown)
VH: B1 VH
VL: B1 VL with S12T
notes: as for B1
In the case of B4, the Kd in assay [1] was found to be 2.09 nM; in assay [2] it was 16.3 nM; with human SIRPγ isoform 1 [3], 66.7 nM; in [4] it was 10.5 nM; in assay [5], 2.85 nM; in assay [6], 4.88 nM.

B5: antibody 136 variant MutRv_Q38E/mut (antibody, human IgG1, V domains shown)
VH: B1 VH
VL: B1 VL with Q38E
notes: as for B1
As to B5, the dissociation constant (Kd) in [1] is 2.98 nM; in assay [2], 33.1 nM; with human SIRPγ isoform 1 [3], 19.3 nM; in [4], 12.5 nM; in [5], 5.98 nM; in assay [6] it was 6.18 nM.

B6: antibody 136 variant MutRv_S22T/mut (antibody, human IgG1, V domains shown)
VH: B1 VH
VL: B1 VL with S22T
notes: as for B1
Regarding B6, the Kd is 1.64 nM in [1]; 13.3 nM in [2]; 61.7 nM with human SIRPγ isoform 1 [3]; 8.28 nM in [4]; 2.44 nM in assay [5]; 4.99 nM in assay [6].

B7: Hum8/AB21_HC_Mutall (antibody, V domains shown)
VH: EVQLVESGGGVVQPGGSLRLSCAASGFTFSSNAMSWVRQAPGKGLEWVAGISAGGSDTYYPASVKGRFTISRDNSKNTLYLQMNSLRAEDTAVYYCARETWNHLFDYWGQGTLVTVSS
VL: SYELTQPPSVSVSPGQTARITCSGGAYSSYYYAWYQQKPGQAPVLVIYSDSKRPSGIPERFSGSSSGTTVTLTISGVQAEDEADYYCGGYDQSSYTNPFGGGTKLTVL
notes: also called Hum8/AB21mutall
Turning to B7, the Kd in the assay with human SIRP-α v1 [12] was 0.0201 nM; with BALBc mouse SIRP-α [13] it was 71.2 nM; with NOD mouse SIRP-α [14], 27.8 nM.

B8: Hum1/AB25_HC_Mutall (antibody, V domains shown)
VH: EVQLVESGGGVVQPGGSLRLSCAASGFTFSSNAMSWVRQAPGKGLEWVAGISSGSDTYYGDSVKGRFTISRDNSKNTLYLQMNSLTAEDTAVYYCARETWNHLFDYWGQGTLVTVSS
VL: B7 VL with A26S, L45T, V46L, S51D, G56N
On to B8, for which the Kd with human SIRP-α v1 [12] is 0.00519 nM; in the assay with BL6 mouse SIRP-α [15] it was 10.3 nM; with BALBc mouse SIRP-α [13] it was 7.25 nM; in the assay with NOD mouse SIRP-α [14] it was 4.83 nM.

B9: Hum8/AB25_HC_Mutall (antibody, V domains shown)
VH: B8 VH
VL: B7 VL
As for B9, the Kd with human SIRP-α v1 [12] is 0.0262 nM; with BL6 mouse SIRP-α [15], 497000 nM; with BALBc mouse SIRP-α [13], 59.9 nM; with NOD mouse SIRP-α [14] it was 20.5 nM.

B10: Hum1/AB27_HC_Mutall (antibody, V domains shown)
VH: B8 VH with T28R, N32Y, A49S, S55G, G60V, T86R
VL: B7 VL with A26S, L45T, V46L, S51D, G56N
Turning to B10, the Kd is 0.00437 nM with human SIRP-α v1 [12], 9.03 nM in the assay with BL6 mouse SIRP-α [15], 5.77 nM in the assay with BALBc mouse SIRP-α [13] and 2.92 nM in the assay with NOD mouse SIRP-α [14].

B11: Hum9/AB25_HC_Mutall (antibody, V domains shown)
VH: B8 VH
VL: B7 VL with S51D
Take B11: the dissociation constant (Kd) with human SIRP-α v1 [12] was found to be 0.0129 nM; in the assay with BL6 mouse SIRP-α [15] it was 11.5 nM; with BALBc mouse SIRP-α [13], 38.3 nM; with NOD mouse SIRP-α [14], 61.2 nM.
